Measurements taken from IntAct's records for PubMed 31515488.

B1: Notch homolog 2 N-terminal-like protein A (Homo sapiens), Q7Z3S9 (parent)
chain: MCVTYHNGTGYCKCPEGFLGEYCQHRDPCEKNRCQNGGTCVAQAMLGKATCRCASGFTGEDCQYSTSHPCFVSRPCLNGGTCHMLSRDTYECTCQVGFTGKECQWTDACLSHPCANGSTCTTVANQFSCKCLTGFTGQKCETDVNECDIPGHCQHGGTCLNLPGSYQCQCLQGFTGQYCDSLYVPCAPSPCVNGGTCRQTGDFTFECNCLPETVRRGTELWERDREVWNGKEHDEN
partner: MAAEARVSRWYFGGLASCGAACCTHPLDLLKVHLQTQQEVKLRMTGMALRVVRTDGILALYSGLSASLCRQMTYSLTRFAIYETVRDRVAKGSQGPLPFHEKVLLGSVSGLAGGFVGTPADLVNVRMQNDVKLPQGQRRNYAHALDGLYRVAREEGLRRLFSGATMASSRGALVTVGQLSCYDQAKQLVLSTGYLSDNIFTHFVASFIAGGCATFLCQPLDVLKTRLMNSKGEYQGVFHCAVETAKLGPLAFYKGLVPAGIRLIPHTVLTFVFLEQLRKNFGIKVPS
B2: Coiled-coil domain-containing protein 172 (Homo sapiens), P0C7W6 (parent)
chain: MSLESLFQHIIFTEHQAEESRRLMREVRSEITRCREKIKKATEELNEEKIKLESKVQQFFEKSFFLQLLKAHENALEKQYSEITNHRNMLLQTFEAIKKQMIEEEDKFIKEITDFNNDYEITKKRELLMKENVKIEISDLENQANMLKSEMKSMEHDSSQLNELQKQKSELIQELFTLQRKLKVFEDEENESICTTKYLEAEKIKISEKPQNDTECLRLKKELELYKEDDMESVYEALQTEIEFLELTLAQKDLQESK
B3: Cyclin-dependent kinase 4 inhibitor C (Homo sapiens), P42773 (parent)
chain: MAEPWGNELASAAARGDLEQLTSLLQNNVNVNAQNGFGRTALQVMKLGNPEIARRLLLRGANPDLKDRTGFAVIHDAARAGFLDTLQTLLEFQADVNIEDNEGNLPLHLAAKEGHLRVVEFLVKHTASNVGHRNHKGDTACDLARLYGRNEVVSLMQANGAGGATNLQ
B4: Zinc finger and BTB domain-containing protein 9 (Homo sapiens), Q96C00 (parent)
chain: METPTPLPPVPASPTCNPAPRTIQIEFPQHSSSLLESLNRHRLEGKFCDVSLLVQGRELRAHKAVLAAASPYFHDKLLLGDAPRLTLPSVIEADAFEGLLQLIYSGRLRLPLDALPAHLLVASGLQMWQVVDQCSEILRELETSGGGISARGGNSYHALLSTTSSTGGWCIRSSPFQTPVQSSASTESPASTESPVGGEGSELGEVLQIQVEEEEEEEEDDDDEDQGSATLSQTPQPQRVSGVFPRPHGPHPLPMTATPRKLPEGESAPLELPAPPALPPKIFYIKQEPFEPKEEISGSGTQPGGAKEETKVFSGGDTEGNGELGFLLPSGPGPTSGGGGPSWKPVDLHGNEILSGGGGPGGAGQAVHGPVKLGGTPPADGKRFGCLCGKRFAVKPKRDRHIMLTFSLRPFGCGICNKRFKLKHHLTEHMKTHAGALHACPHCGRRFRVHACFLRHRDLCKGQGWATAHWTYK
partner: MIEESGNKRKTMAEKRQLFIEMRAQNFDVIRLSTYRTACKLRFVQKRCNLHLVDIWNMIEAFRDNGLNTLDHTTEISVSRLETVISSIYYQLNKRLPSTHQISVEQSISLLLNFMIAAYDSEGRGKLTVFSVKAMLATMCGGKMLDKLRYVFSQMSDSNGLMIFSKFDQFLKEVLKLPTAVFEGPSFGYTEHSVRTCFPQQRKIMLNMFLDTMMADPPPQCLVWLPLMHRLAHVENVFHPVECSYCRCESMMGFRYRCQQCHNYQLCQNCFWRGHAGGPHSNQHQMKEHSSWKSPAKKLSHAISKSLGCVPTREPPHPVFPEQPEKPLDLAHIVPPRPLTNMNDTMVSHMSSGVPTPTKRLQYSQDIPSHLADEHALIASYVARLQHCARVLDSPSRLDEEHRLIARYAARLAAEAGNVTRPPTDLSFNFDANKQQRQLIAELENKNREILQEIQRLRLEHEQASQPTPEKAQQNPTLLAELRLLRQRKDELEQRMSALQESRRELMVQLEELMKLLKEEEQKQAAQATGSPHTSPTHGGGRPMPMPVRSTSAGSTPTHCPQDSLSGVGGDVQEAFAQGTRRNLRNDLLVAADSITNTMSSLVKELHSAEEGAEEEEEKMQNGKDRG
B5: Medium-chain acyl-CoA ligase ACSF2, mitochondrial (Homo sapiens), Q96CM8 (parent)
chain: MAVYVGMLRLGRLCAGSSGVLGARAALSRSWQEARLQGVRFLSSREVDRMVSTPIGGLSYVQGCTKKHLNSKTVGQCLETTAQRVPEREALVVLHEDVRLTFAQLKEEVDKAASGLLSIGLCKGDRLGMWGPNSYAWVLMQLATAQAGIILVSVNPAYQAMELEYVLKKVGCKALVFPKQFKTQQYYNVLKQICPEVENAQPGALKSQRLPDLTTVISVDAPLPGTLLLDEVVAAGSTRQHLDQLQYNQQFLSCHDPINIQFTSGTTGSPKGATLSHYNIVNNSNILGERLKLHEKTPEQLRMILPNPLYHCLGSVAGTMMCLMYGATLILASPIFNGKKALEAISRERGTFLYGTPTMFVDILNQPDFSSYDISTMCGGVIAGSPAPPELIRAIINKINMKDLVVAYGTTENSPVTFAHFPEDTVEQKAESVGRIMPHTEARIMNMEAGTLAKLNTPGELCIRGYCVMLGYWGEPQKTEEAVDQDKWYWTGDVATMNEQGFCKIVGRSKDMIIRGGENIYPAELEDFFHTHPKVQEVQVVGVKDDRMGEEICACIRLKDGEETTVEEIKAFCKGKISHFKIPKYIVFVTNYPLTISGKIQKFKLREQMERHLNL
partner: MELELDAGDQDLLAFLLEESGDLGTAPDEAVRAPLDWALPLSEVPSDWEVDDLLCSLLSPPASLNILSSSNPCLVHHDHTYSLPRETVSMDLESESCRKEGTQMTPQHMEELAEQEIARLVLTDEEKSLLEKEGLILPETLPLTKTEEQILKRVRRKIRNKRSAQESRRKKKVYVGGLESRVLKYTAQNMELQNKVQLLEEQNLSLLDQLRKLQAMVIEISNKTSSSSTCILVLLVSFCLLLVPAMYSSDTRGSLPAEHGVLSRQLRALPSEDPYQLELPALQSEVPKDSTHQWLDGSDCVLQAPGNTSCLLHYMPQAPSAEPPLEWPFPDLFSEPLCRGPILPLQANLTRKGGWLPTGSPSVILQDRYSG

Variants of: B1
Conditions: with dic_human SLC25A10, Q9UBX3

Row | effect of a mutation on the interaction | Variant
1 | with no effect | A115T
2 | with no effect | R74Q

Variants of: B2
Conditions: with fa13c_human FAM13C

Row | effect of a mutation on the interaction | Variant
3 | with no effect | I10V
4 | disrupting interaction strength | F60L

Variants of: B2
Conditions: with dctn2_human DCTN2, Q13561
dctn2_human DCTN2, Q13561, sequence (Q13561 whole entry): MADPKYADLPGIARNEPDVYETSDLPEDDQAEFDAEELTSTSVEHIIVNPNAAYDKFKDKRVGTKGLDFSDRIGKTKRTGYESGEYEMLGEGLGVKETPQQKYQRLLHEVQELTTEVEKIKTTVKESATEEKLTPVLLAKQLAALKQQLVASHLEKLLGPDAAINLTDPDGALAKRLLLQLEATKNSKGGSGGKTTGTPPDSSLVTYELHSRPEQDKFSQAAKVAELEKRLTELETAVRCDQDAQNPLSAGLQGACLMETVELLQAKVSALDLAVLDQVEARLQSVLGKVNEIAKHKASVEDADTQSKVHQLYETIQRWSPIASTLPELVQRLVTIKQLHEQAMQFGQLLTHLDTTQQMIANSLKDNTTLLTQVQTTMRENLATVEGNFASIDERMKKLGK

Row | effect of a mutation on the interaction | Variant
5 | with no effect | I10V
6 | disrupting interaction strength | F60L

Variants of: B2
Conditions: with smce1_human SMARCE1, Q969G3
smce1_human SMARCE1, Q969G3, sequence (Q969G3 whole entry): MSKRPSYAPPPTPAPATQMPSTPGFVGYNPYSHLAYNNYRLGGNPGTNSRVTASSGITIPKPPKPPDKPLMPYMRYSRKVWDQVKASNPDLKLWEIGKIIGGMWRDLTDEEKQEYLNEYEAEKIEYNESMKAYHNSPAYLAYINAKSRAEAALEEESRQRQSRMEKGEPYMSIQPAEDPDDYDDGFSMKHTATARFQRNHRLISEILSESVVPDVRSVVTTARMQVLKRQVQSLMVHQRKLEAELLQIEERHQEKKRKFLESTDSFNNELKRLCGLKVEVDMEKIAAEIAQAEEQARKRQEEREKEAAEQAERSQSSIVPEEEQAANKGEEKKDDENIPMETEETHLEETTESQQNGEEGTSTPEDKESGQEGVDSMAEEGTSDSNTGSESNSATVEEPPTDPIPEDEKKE

Row | effect of a mutation on the interaction | Variant
7 | with no effect | I10V
8 | disrupting interaction strength | F60L

Variants of: B2
Conditions: with mesh1_human HDDC3, Q8N4P3
mesh1_human HDDC3, Q8N4P3, sequence (Q8N4P3 whole entry): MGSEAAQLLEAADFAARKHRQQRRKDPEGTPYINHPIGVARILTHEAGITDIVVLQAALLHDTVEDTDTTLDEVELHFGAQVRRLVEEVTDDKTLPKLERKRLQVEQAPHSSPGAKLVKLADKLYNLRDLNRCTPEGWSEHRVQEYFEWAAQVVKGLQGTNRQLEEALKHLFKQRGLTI

Row | effect of a mutation on the interaction | Variant
9 | with no effect | I10V
10 | with no effect | N145K

Variants of: B3
Conditions: with cdk6_human CDK6, Q00534
cdk6_human CDK6, Q00534, sequence (Q00534 whole entry): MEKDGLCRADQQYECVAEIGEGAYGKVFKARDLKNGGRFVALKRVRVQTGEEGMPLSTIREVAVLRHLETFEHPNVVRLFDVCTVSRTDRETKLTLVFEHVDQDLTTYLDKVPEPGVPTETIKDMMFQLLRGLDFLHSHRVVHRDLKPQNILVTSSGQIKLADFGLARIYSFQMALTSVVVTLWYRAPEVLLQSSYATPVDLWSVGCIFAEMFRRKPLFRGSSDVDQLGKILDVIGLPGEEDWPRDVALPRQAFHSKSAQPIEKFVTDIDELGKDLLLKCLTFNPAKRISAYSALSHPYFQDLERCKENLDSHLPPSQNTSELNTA

Row | effect of a mutation on the interaction | Variant
11 | with no effect | T69A
12 | with no effect | V31L
13 | with no effect | R117Q
14 | with no effect | R133Q

Variants of: B3
Conditions: with cdk4_human CDK4, P11802

Row | effect of a mutation on the interaction | Variant
15 | with no effect | T69A
16 | with no effect | V31L

Variants of: B3
Conditions: with itf2_human TCF4, P15884
itf2_human TCF4, P15884, sequence (P15884 whole entry): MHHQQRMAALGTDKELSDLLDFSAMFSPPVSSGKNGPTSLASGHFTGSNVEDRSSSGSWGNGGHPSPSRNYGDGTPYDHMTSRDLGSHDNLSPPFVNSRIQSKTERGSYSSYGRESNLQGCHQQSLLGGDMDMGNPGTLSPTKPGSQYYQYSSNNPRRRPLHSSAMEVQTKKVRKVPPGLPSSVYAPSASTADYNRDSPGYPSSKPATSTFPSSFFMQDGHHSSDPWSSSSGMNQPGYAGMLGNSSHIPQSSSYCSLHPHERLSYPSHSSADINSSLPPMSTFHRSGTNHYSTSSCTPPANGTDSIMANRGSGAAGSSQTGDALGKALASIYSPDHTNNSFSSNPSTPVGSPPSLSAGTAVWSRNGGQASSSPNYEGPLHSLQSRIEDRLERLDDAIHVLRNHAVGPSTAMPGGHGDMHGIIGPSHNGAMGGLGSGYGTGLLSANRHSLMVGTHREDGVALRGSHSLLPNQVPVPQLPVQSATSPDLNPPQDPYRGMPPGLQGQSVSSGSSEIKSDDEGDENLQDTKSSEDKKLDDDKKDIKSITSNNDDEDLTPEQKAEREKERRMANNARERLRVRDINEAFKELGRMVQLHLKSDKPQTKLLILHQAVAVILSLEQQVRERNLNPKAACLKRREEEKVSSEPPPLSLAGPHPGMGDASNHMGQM

Row | effect of a mutation on the interaction | Variant
17 | with no effect | T69A
18 | disrupting interaction strength | V31L

Variants of: B3
Conditions: with htf4_human TCF12, Q99081
htf4_human TCF12, Q99081, sequence (Q99081 whole entry): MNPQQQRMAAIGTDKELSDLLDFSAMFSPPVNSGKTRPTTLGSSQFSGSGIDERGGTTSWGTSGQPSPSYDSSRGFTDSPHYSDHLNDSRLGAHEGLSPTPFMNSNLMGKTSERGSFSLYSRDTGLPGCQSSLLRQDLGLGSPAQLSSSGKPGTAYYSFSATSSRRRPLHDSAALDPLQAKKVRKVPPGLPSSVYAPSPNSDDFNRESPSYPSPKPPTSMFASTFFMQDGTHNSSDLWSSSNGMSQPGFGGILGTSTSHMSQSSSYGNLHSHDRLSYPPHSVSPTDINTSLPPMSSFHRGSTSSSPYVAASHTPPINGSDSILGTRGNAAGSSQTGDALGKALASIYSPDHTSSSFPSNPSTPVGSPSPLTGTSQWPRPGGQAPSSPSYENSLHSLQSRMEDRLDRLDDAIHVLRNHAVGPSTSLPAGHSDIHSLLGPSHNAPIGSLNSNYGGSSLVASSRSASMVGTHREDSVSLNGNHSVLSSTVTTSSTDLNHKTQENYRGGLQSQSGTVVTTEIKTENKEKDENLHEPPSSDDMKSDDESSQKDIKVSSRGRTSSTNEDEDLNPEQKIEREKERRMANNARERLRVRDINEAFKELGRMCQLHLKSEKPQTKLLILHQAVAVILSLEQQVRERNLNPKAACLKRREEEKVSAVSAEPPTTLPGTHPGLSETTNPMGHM

Row | effect of a mutation on the interaction | Variant
19 | disrupting interaction strength | V31L

Variants of: B3
Conditions: with nagk_human NAGK

Row | effect of a mutation on the interaction | Variant
20 | disrupting interaction strength | V31L

Variants of: B3
Conditions: with sahh2_human AHCYL1, O43865
sahh2_human AHCYL1, O43865, sequence (O43865 whole entry): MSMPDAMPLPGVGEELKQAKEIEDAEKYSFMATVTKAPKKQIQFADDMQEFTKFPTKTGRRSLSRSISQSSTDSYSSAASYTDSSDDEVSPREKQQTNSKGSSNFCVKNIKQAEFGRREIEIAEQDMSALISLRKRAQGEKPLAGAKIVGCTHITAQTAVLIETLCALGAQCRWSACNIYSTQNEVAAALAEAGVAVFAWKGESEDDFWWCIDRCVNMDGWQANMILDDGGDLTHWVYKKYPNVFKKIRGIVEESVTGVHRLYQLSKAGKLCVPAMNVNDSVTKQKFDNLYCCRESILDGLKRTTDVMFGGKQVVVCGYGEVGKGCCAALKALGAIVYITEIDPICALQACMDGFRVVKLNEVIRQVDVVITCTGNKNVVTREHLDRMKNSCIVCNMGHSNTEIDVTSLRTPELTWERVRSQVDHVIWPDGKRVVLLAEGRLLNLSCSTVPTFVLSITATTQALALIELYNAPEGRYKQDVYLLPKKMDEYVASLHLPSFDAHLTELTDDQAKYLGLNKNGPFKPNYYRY

Row | effect of a mutation on the interaction | Variant
21 | disrupting interaction strength | V31L

Variants of: B4
Conditions: with dtnb_human DTNB

Row | effect of a mutation on the interaction | Variant
22 | with no effect | S173C

Variants of: B5
Conditions: with creb3_human CREB3, O43889

Row | effect of a mutation on the interaction | Variant
23 | disrupting interaction strength | A34V
24 | disrupting interaction strength | G19W
